Assay [1] has as its target T1, His-tagged recombinant human HER3 ECD (Homo sapiens (Human)., UniProt P21860).
T1 construct: human HER3, extracellular domain (ECD); see the supplier's catalogue entry; also called HER3-His; source: bought: Sino Biological Inc (#10201-H08H)
In words: ELISA; direct ELISA: His-tagged EGFR, HER2 or HER3 coated at 800 ng/ml in PBS on Maxisorp plates; two-fold or ten-fold dilutions of BiXAb™ or 1MAbs in PBS, 37°C, 1 h; detected with peroxidase-conjugated anti-human Fc. To be noted: both partners purified. (In general: An ELISA detects its analyte on a solid surface through an enzyme-linked reagent.)

In assay [2] the target is T2, His-tagged recombinant human EGFR ECD (Homo sapiens (Human)., UniProt P00533).
T2 construct: human EGFR, extracellular domain (ECD); see the supplier's catalogue entry; also called EGFR-His; source: bought: Sino Biological Inc (#10001-H08H)
Described as above. To be noted: both partners purified.

The results in this text go back to publication PMC10157173 (Frontiers in Immunology, 2023).

B1: patritumab (antibody, V domains shown)
VH: QVQLQQWGAGLLKPSETLSLTCAVYGGSFSGYYWSWIRQPPGKGLEWIGEINHSGSTNYNPSLKSRVTISVETSKNQFSLKLSSVTAADTAVYYCARDKWTWYFDLWGRGTLVTVSS
VL: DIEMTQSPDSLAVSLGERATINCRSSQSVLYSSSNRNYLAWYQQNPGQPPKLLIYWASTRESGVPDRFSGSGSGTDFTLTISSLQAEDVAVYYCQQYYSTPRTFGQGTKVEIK
notes: heavy chain of patritumab; light chain of patritumab; also called 3Patri; anti-HER3 mAb; source: cloning, production and purification of mAbs at Icosagen; copies: 2 + 2
Consider B1, for which the binding result in assay [1] is “binds”.

B2: matuzumab (antibody, V domains shown)
VH: QVQLVQSGAEVKKPGASVKVSCKASGYTFTSHWMHWVRQAPGQGLEWIGEFNPSNGRTNYNEKFKSKATMTVDTSTNTAYMELSSLRSEDTAVYYCASRDYDYDGRYFDYWGQGTLVTVSS
VL: DIQMTQSPSSLSASVGDRVTITCSASSSVTYMYWYQQKPGKAPKLLIYDTSNLASGVPSRFSGSGSGTDYTFTISSLQPEDIATYYCQQWSSHIFTFGQGTKVEIK
notes: heavy chain of matuzumab; light chain of matuzumab; also called 1Matu; anti-EGFR mAb; source: cloning, production and purification of mAbs at Icosagen; matuzumab also donated by Merck AG; copies: 2 + 2
With B2, the binding result in assay [2] was “binds”.

B3: elgemtumab (antibody, V domains shown)
VH: EVQLLESGGGLVQPGGSLRLSCAASGFTFSSYAMSWVRQAPGKGLEWVSAINSQGKSTYYADSVKGRFTISRDNSKNTLYLQMNSLRAEDTAVYYCARWGDEGFDIWGQGTLVTVSS
VL: DIQMTQSPSSLSASVGDRVTITCRASQGISNWLAWYQQKPGKAPKLLIYGASSLQSGVPSRFSGSGSGTDFTLTISSLQPEDFATYYCQQYSSFPTTFGQGTKVEIK
notes: heavy chain of elgemtumab; light chain of elgemtumab; also called 3Elgem; anti-HER3 mAb; source: cloning, production and purification of mAbs at Icosagen; copies: 2 + 2
With B3, the binding result in assay [1] was “binds”.
